Measured values published in the supplement of paper PMC5998384.

Legend:
[1] = tested on: HeLa Kyoto; test: solubility change mitosis vs G1/S (difference of NP-40 vs SDS log2 ratios) (log2 ratio difference); higher = more soluble in mitosis
[2] = tested on: HeLa Kyoto; test: melting temperature (median over replicates), in situ; higher = more thermally stable
[3] = tested on: HeLa Kyoto; test: thermal stability score vs G1/S (z-score of summed log2 fold changes over temperatures); higher = more thermally stable than in G1/S
[4] = tested on: HeLa Kyoto; test: solubility in G1/S (NP-40 vs SDS abundance) (log2 ratio); higher = more soluble; details: cell cycle stage: G1/S
[5] = cell cycle stage: early G1 (4.5 h after nocodazole release)
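For melting temperature (median over replicates), in situ in this document: HeLa Kyoto cells synchronized by double thymidine or nocodazole block, proteins quantified by TMT10plex mass spectrometry, three independent biological replicates.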
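For solubility change mitosis vs G1/S (difference of NP-40 vs SDS log2 ratios) in this document: synchronized HeLa Kyoto cells (double thymidine block for G1/S, nocodazole release for mitosis), protein amounts in NP-40 versus SDS lysates quantified by mass spectrometry, three biological replicates.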
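For solubility in G1/S (NP-40 vs SDS abundance) in this document: HeLa Kyoto cells arrested at G1/S by double thymidine block, proteins quantified by TMT10plex mass spectrometry in mild NP-40 versus SDS extracts, three biological replicates.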
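For thermal stability score vs G1/S (z-score of summed log2 fold changes over temperatures) in this document: synchronized HeLa Kyoto cells, proteins quantified by TMT10plex mass spectrometry, three biological replicates, mitosis taken 0.5 h after nocodazole release, G1/S directly after double thymidine block.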

Row | Sequence | solubility change mitosis (log2) [1] | melting temperature ([2]; cell cycle stage: mitosis) [°C] | thermal stability score [3, 5] | thermal stability score ([3]; cell cycle stage: mitosis) | solubility in G1/S (log2) [4] | melting temperature ([2]; cell cycle stage: G1/S) [°C]
1 | MKRSVAVWLLVGLSLGVPQFGKGDICDPNPCENGGICLPGLADGSFSCECPDGFTDPNCSSVVEVASDEEEPTSAGPCTPNPCHNGGTCEISEAYRGDTFIGYVCKCPRGFNGIHCQHNINECEVEPCKNGGICTDLVANYSCECPGEFMGRNCQYKCSGPLGIEGGIISNQQITASSTHRALFGLQKWYPYYARLNKKGLINAWTAAENDRWPWIQINLQRKMRVTGVITQGAKRIGSPEYIKSYKIAYSNDGKTWAMYKVKGTNEDMVFRGNIDNNTPYANSFTPPIKAQYVRLYPQVCRRHCTLRMELLGCELSGCSEPLGMKSGHIQDYQITASSIFRTLNMDMFTWEPRKARLDKQGKVNAWTSGHNDQSQWLQVDLLVPTKVTGIITQGAKDFGHVQFVGSYKLAYSNDGEHWTVYQDEKQRKDKVFQGNFDNDTHRKNVIDPPIYARHIRILPWSWYGRITLRSELLGCTEEE [EDIL3] | -0.0391 | 55.6 | 1.05 | 0.661 | -0.122 | 
2 | MKSARAKTPRKPTVKKGSQTNLKDPVGVYCRVRPLGFPDQECCIEVINNTTVQLHTPEGYRLNRNGDYKETQYSFKQVFGTHTTQKELFDVVANPLVNDLIHGKNGLLFTYGVTGSGKTHTMTGSPGEGGLLPRCLDMIFNSIGSFQAKRYVFKSNDRNSMDIQCEVDALLERQKREAMPNPKTSSSKRQVDPEFADMITVQEFCKAEEVDEDSVYGVFVSYIEIYNNYIYDLLEEVPFDPIKPKPPQSKLLREDKNHNMYVAGCTEVEVKSTEEAFEVFWRGQKKRRIANTHLNRESSRSHSVFNIKLVQAPLDADGDNVLQEKEQITISQLSLVDLAGSERTNRTRAEGNRLREAGNINQSLMTLRTCMDVLRENQMYGTNKMVPYRDSKLTHLFKNYFDGEGKVRMIVCVNPKAEDYEENLQVMRFAEVTQEVEVARPVDKAICGLTPGRRYRNQPRGPVGNEPLVTDVVLQSFPPLPSCEILDINDEQTLPRLIEALEKRHNLRQMMIDEFNKQSNAFKALLQEFDNAVLSKENHMQGKLNEKEKMISGQKLEIERLEKKNKTLEYKIEILEKTTTIYEEDKRNLQQELETQNQKLQRQFSDKRRLEARLQGMVTETTMKWEKECERRVAAKQLEMQNKLWVKDEKLKQLKAIVTEPKTEKPERPSRERDREKVTQRSVSPSPVPLSSNYIAQISNGQQLMSQPQLHRRSNSCSSISVASCISEWEQKIPTYNTPLKVTSIARRRQQEPGQSKTCIVSDRRRGMYWTEGREVVPTFRNEIEIEEDHCGRLLFQPDQNAPPIRLRHRRSRSAGDRWVDHKPASNMQTETVMQPHVPHAITVSVANEKALAKCEKYMLTHQELASDGEIETKLIKGDIYKTRGGGQSVQFTDIETLKQESPNGSRKRRSSTVAPAQPDGAESEWTDVETRCSVAVEMRAGSQLGPGYQHHAQPKRKKP [KIF23] | -0.112 | 49.6 | 0.0501 | 0.448 | -0.255 | 49.3
3 | MKSLKSRLRRQDVPGPASSGAAAASAHAADWNKYDDRLMKAAERGDVEKVTSILAKKGVNPGKLDVEGRSVFHVVTSKGNLECLNAILIHGVDITTSDTAGRNALHLAAKYGHALCLQKLLQYNCPTEHADLQGRTALHDAAMADCPSSIQLLCDHGASVNAKDVDGRTPLVLATQMSRPTICQLLIDRGADVNSRDKQNRTALMLGCEYGCRDAVEVLIKNGADISLLDALGHDSSYYARIGDNLDILTLLKTASENTNKGRELWKKGPSLQQRNLTHMQDEVNVKSHQREHQNIQDLEIENEDLKERLRKIQQEQRILLDKVNGLQLQLNEEVMVADDLESEREKLKSLLAAKEKQHEESLRTIEALKNRFKYFESDHLGSGSHFSNRKEDMLLKQGQMYMADSQCTSPGIPAHMQSRSMLRPLELSLPSQTSYSENEILKKELEAMRTFCESAKQDRLKLQNELAHKVAECKALALECERVKEDSDEQIKQLEDALKDVQKRMYESEGKVKQMQTHFLALKEHLTSEAASGNHRLTEELKDQLKDLKVKYEGASAEVGKLRNQIKQNEMIVEEFKRDEGKLIEENKRLQKELSMCEMEREKKGRKVTEMEGQAKELSAKLALSIPAEKFENMKSSLSNEVNEKAKKLVEMEREHEKSLSEIRQLKRELENVKAKLAQHVKPEEHEQVKSRLEQKSGELGKKITELTLKNQTLQKEIEKVYLDNKLLKEQAHNLTIEMKNHYVPLKVSEDMKKSHDAIIDDLNRKLLDVTQKYTEKKLEMEKLLLENDSLSKDVSRLETVFVPPEKHEKEIIALKSNIVELKKQLSELKKKCGEDQEKIHALTSENTNLKKMMSNQYVPVKTHEEVKMTLNDTLAKTNRELLDVKKKFEDINQEFVKIKDKNEILKRNLENTQNQIKAEYISLAEHEAKMSSLSQSMRKVQDSNAEILANYRKGQEEIVTLHAEIKAQKKELDTIQECIKVKYAPIVSFEECERKFKATEKELKDQLSEQTQKYSVSEEEVKKNKQENDKLKKEIFTLQKDLRDKTVLIEKSHEMERALSRKTDELNKQLKDLSQKYTEVKNVKEKLVEENAKQTSEILAVQNLLQKQHVPLEQVEALKKSLNGTIENLKEELKSMQRCYEKEQQTVTKLHQLLENQKNSSVPLAEHLQIKEAFEKEVGIIKASLREKEEESQNKMEEVSKLQSEVQNTKQALKKLETREVVDLSKYKATKSDLETQISSLNEKLANLNRKYEEVCEEVLHAKKKEISAKDEKELLHFSIEQEIKDQKERCDKSLTTITELQRRIQESAKQIEAKDNKITELLNDVERLKQALNGLSQLTYTSGNPTKRQSQLIDTLQHQVKSLEQQLADADRQHQEVIAIYRTHLLSAAQGHMDEDVQEALLQIIQMRQGLVC [UACA] | -0.0155 | 50.6 | 1.19 | 0.0635 | 0.233 | 48.5
4 | MKSNPAIQAAIDLTAGAAGGTACVLTGQPFDTMKVKMQTFPDLYRGLTDCCLKTYSQVGFRGFYKGTSPALIANIAENSVLFMCYGFCQQVVRKVAGLDKQAKLSDLQNAAAGSFASAFAALVLCPTELVKCRLQTMYEMETSGKIAKSQNTVWSVIKSILRKDGPLGFYHGLSSTLLREVPGYFFFFGGYELSRSFFASGRSKDELGPVPLMLSGGVGGICLWLAVYPVDCIKSRIQVLSMSGKQAGFIRTFINVVKNEGITALYSGLKPTMIRAFPANGALFLAYEYSRKLMMNQLEAY [SLC25A15] | -0.0497 | 56.6 | -2.21 | -1.66 | 0.00397 | 58
